# Patent US20200129630A1, “METHODS FOR TREATING CANCER” (BicycleRD Limited, priority 2018, published 2020)
# Read-outs that look alike come from different tables or passages of the source. Numbered stars: 1 amine (or outer) side, 2 acyl side, 3 side chain; on linkers, the order of the positions; unused ones are H or OH. Bridge positions count the residues as written; N and C are the ends. Square brackets hold non-standard residues; d marks the D form. Peptide text beside a SMILES is read from it. * marks the point of attachment. X1 = COc1cc2cc(c1Cl)N(C)C(=O)C[C@H](OC(=O)[C@H](C)N(C)C(=O)CCSSC(C)CCC(=O)*)[C@]1(C)O[C@H]1[C@H](C)[C@@H]1C[C@@](O)(NC(=O)O1)[C@H](OC)/C=C/C=C(\C)C2; 1Nal = N[C@@H](Cc1cccc2ccccc12)C(=O)O; TBMB = c1c(C[*:1])cc(C[*:3])cc1C[*:2]; Tle = CC(C)(C)[C@H](N)C(=O)O; βAla = NCCC(=O)O; Sar = CNCC(=O)O
# Experiments:
# EBC-1 = assay: In vitro cytotoxicity (CellTiter-Glo) EBC-1; assay type: cell-based; conditions: EBC-1, Lung
# Text: (§1) Table 1 and Table 2 Notes: in general regression and stable disease correlated with the in vitro cytotoxicity and MT1-MMP expression. Female BALB/c mice n=3/group animals dosed twice per week except EBC-1 three per week. Tumor growth inhibition (TGI) (%)=[1−(Ti−T0)/(Vi−V0)]×100; Ti is the average tumor volume of a treatment group on a given day, TO is the average tumor volume of the treatment group on the day of treatment start, Vi is the average tumor volume of vehicle control group on the same day with Ti, and V0 is the average tumor volume of vehicle group on the day of treatment start. A one-way ANOVA was performed to compare tumor volume among groups, and when a significant F-statistics (a ratio of treatment variance to the error variance) was obtained, comparisons between groups were carried out with Games-Howell test. All data were analyzed using GraphPad Prism.* p<0.05, ** p<0.01, *** p<0.001. In vitro cytotoxicity was measured by CellTiter-Glo®, MT1-MMP membrane H score from immunohistochemistry staining, NM not measured. Tumor size on Day 1 of dosing.
# HT-1080 = assay: In vitro cytotoxicity (CellTiter-Glo) HT-1080; assay type: cell-based; conditions: HT-1080, Fibrosarcoma
# Text: as §1
# SNU-16 = assay: In vitro cytotoxicity (CellTiter-Glo) SNU-16; assay type: cell-based; conditions: SNU-16, Gastric
# Text: as §1
# [1] = ECG, respiratory plethysmography and blood pressure (GLP safety pharmacology); assay type: in vivo; conditions: monkeys 0.2, 0.5, 1 and 1.5 mg/kg twice weekly
# Experimental: As part of the Good Laboratory Practice (GLP)-compliant toxicity studies, a core battery of safety pharmacology tests were performed. […] Electrocardiogram (ECG) and respiratory plethysmography measurements were taken in monkeys dosed at 0.2, 0.5, 1 and 1.5 mg/kg (2.4, 6, 12 and 18 mg/m^2 respectively) twice weekly on Day 4, Day 22 (following 2nd and 7th dose) and in the recovery period (for animals dosed with 0, 6 and 12 mg/m^2 twice weekly). Blood pressure (BP) measurements were also evaluated in the same monkeys on Day 1 and Day 25 and in the recovery period. […] It is therefore concluded that BT1718 has no cardiac, respiratory or behavioral liability at the doses and schedule tested in the GLP toxicity studies.
# [2] = Stability in plasma in vitro, human; assay type: in vitro ADME; conditions: 37° C.
# Experimental: (§2) The stability of BT1718 was assessed in plasma and whole blood from humans, monkey, dog, mouse and rat. […] The mechanism for the difference in stability of the BT1718 peptide in whole blood between the different species is unknown.
# [3] = Stability in whole blood in vitro, rat; assay type: in vitro ADME; conditions: 37° C.
# Experimental: as §2
# [4] = Stability in whole blood in vitro, monkey; assay type: in vitro ADME; conditions: 37° C.
# Experimental: as §2
# [5] = Plasma protein binding, human; assay type: in vitro ADME
# Experimental: Plasma protein binding of BT1718 was also assessed. The mean plasma protein binding of the BT1718 peptide ranged from 87% to 98%, with the free fraction of BT1718 being 13% in human, 2.6% in rats, 7.5% in mice, 3.8% in monkey and 1.5% in dog plasma, the results had no correlation to the plasma and whole blood stability data. […] Plasma protein binding of unconjugated DM1, has previously been reported, with the unbound fraction being 7% in human and monkey and 3% in rat.
# [6] = Non-GLP toxicity studies, rat; assay type: in vivo
# Experimental: In a GLP-compliant study in Cynomolgus monkeys, the highest non-severely toxic dose (HNSTD) of BT1718 was established to be 18 mg/m^2 administered twice weekly, equivalent to a human dose of 0.48 mg/kg. In a GLP-compliant study in the rat, the MTD was not reached with the highest administered dose 6 mg/m^2 twice weekly. At this dose level, there was kidney toxicity (with no effect on clinical condition) and also testicular toxicity. After 28 days off-dose, there was evidence of partial recovery of kidney-related findings, but no recovery of testicular effects at this dose level. […] Therefore, the MTD for rat for twice weekly dosing was considered to be between 1 and 1.5 mg/kg.
compound,measurement,setting,value
COc1cc2cc(c1Cl)N(C)C(=O)C[C@H](OC(=O)[C@H](C)N(C)C(=O)CCSSC(C)CCC(=O)NCCC(=O)N(C)CC(=O)N(C)CC(=O)N(C)CC(=O)N(C)CC(=O)N(C)CC(=O)N(C)CC(=O)N(C)CC(=O)N(C)CC(=O)N(C)CC(=O)N(C)CC(=O)N[C@@H](C)C(=O)N[C@H]1CSCc3cc4cc(c3)CSC[C@H](NC(=O)[C@@H](C)NC(=O)[C@H](Cc3cccc5ccccc35)NC(=O)[C@H](CCC(=O)O)NC(=O)[C@H](CC(N)=O)NC(=O)[C@@H](C)NC1=O)C(=O)N[C@@H](CCC(=O)O)C(=O)N[C@@H](CC(=O)O)C(=O)N[C@@H](Cc1ccccc1)C(=O)N[C@@H](Cc1ccc(O)cc1)C(=O)N[C@@H](CC(=O)O)C(=O)N[C@@H](C(C)(C)C)C(=O)N[C@H](C(N)=O)CSC4)[C@]1(C)O[C@H]1[C@H](C)[C@@H]1C[C@@](O)(NC(=O)O1)[C@H](OC)/C=C/C=C(\C)C2 (stereo partly drawn) [BT1718] ({X1-βAla}-[Sar][Sar][Sar][Sar][Sar][Sar][Sar][Sar][Sar][Sar]AC[dA]NE[1Nal][dA]CEDFYD[Tle]C-NH2; linker 12-18-25 via TBMB (inferred)),IC50,EBC-1,27 nM
same,IC50,HT-1080,4.3 nM
same,IC50,SNU-16,19.5 nM
same,"ECG, respiratory plethysmography, blood pressure findings",[1],no BT1718 related findings
same,half-life,[2],> 6 h
same,half-life,[3],> 24 h
same,half-life,[4],2 to 4 h
same,fraction unbound,"[5]; human plasma, read-out: free fraction",0.13
same,fraction unbound,"[5]; range across human, rat, mouse, monkey and dog plasma, read-out: mean plasma protein binding",0.02 to 0.13
same,tolerability,"[6]; non-GLP rat, 9 mg/m^2 twice weekly",not well tolerated
same,GI findings,[6]; rat 5.03 mg/kg (30.2 mg/m^2) twice,Single cell necrosis of the ileum
same,bladder findings,"[6]; rat, single administration of 40 mg/m^2",Bladder epithelial degeneration
same,peripheral haematology,"[6]; rats 1.5 mg/kg, 9 mg/m^2 twice weekly",significant decreases in WBCs
same,hepatic findings,"[6]; rats 3.35 mg/kg, 20.1 mg/m^2 twice weekly",Elevated liver enzymes
same,renal findings,"[6]; rats >1 mg/kg, 6 mg/m^2 twice weekly",Moderate renal tubule degeneration and epithelial mitosis
